Measurements published in article PMC11272584 (Nature Metabolism, 2024).
Where a chain is given by its changes, count along the chain named. Names may count otherwise.

T1: GIPR E461* (Homo sapiens, UniProt P48546)
T1 construct: host or cells: HEK293
T1 sequence (P48546 22-460 limits assumed): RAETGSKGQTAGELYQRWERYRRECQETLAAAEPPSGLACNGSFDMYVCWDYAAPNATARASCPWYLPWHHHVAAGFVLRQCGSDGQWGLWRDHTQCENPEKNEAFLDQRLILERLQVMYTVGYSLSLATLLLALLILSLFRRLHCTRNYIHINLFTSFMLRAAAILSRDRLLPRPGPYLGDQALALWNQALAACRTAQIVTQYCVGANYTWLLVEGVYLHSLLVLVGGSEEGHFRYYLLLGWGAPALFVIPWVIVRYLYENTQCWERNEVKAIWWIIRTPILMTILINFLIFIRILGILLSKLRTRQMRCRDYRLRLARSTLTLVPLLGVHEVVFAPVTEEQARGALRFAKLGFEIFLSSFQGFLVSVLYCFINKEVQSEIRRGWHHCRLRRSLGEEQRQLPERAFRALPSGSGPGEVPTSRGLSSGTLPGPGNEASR

T2: GIPR G449A (Homo sapiens, UniProt P48546, G449A)
T2 construct: host or cells: HEK293
T2 sequence (P48546 22-466 G449A): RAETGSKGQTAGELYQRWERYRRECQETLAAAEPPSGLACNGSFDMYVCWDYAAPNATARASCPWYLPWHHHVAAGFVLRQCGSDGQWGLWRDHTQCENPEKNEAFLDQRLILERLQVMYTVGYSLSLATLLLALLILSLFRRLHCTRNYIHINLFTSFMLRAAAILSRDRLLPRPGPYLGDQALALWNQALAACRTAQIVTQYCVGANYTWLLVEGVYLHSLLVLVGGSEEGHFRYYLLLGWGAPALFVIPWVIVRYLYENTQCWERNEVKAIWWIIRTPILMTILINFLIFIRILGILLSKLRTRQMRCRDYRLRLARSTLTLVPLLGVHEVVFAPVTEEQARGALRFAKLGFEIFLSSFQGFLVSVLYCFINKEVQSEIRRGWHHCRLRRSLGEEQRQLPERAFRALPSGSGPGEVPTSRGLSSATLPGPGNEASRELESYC

T3: GIPR R38L (Homo sapiens, UniProt P48546, R38L)
T3 construct: host or cells: HEK293
T3 sequence (P48546 22-466 R38L): T2 sequence (P48546 22-466 G449A) with R17L, A428G

T4: GIPR E463Q (Homo sapiens, UniProt P48546, E463Q)
T4 construct: host or cells: HEK293
T4 sequence (P48546 22-466 E463Q): T2 sequence (P48546 22-466 G449A) with A428G, E442Q

T5: GIPR T25R (Homo sapiens, UniProt P48546, T25R)
T5 construct: host or cells: HEK293
T5 sequence (P48546 22-466 T25R): T2 sequence (P48546 22-466 G449A) with T4R, A428G

T6: GIPR R43G (Homo sapiens, UniProt P48546, R43G)
T6 construct: host or cells: HEK293
T6 sequence (P48546 22-466 R43G): T2 sequence (P48546 22-466 G449A) with R22G, A428G

B1: E461* (protein)
chain: T1 sequence (P48546 22-460 limits assumed)
B2: G449A (protein)
chain: T2 sequence (P48546 22-466 G449A)
B3: R38L (protein)
chain: T2 sequence (P48546 22-466 G449A) with R17L, A428G
B4: E463Q (protein)
chain: T2 sequence (P48546 22-466 G449A) with A428G, E442Q
B5: T25R (protein)
chain: T2 sequence (P48546 22-466 G449A) with T4R, A428G
B6: R43G (protein)
chain: T2 sequence (P48546 22-466 G449A) with R22G, A428G

What was measured:
GIPR Y258Sfs*50 = experiment: Homologous competition binding; design: species or system human; key: NB: no binding; conditions: n = 4
Experimental: (§1) Binding experiments were performed simultaneously with the same transiently transfected HEK293 cells used for the cAMP experiments to enable the correlation of receptor expression with signalling between assays. In brief, 1 day before the assay, the transfected cells were seeded in a clear 96-well plate. […] On the assay day, the cells were washed twice with 4 °C binding buffer (50 mM HEPES buffer (pH 7.2), 1 mM CaCl2, 5 mM MgCl2 and 0.5% (wt/vol) bovine serum albumin) and incubated for 15 minutes at 4 °C. […] After incubation, the cells were washed in ice-cold binding buffer and lysed with 200 mmol l^−1 NaOH with 1% sodium dodecyl sulphate for 30 min. The gamma radiation was measured with a 2470 Wizard2 Automatic Gamma Counter.
(§2) To obtain Emax, EC50, Bmax, Kd and IC50 values, we analysed the data with the non-linear regression curve fitting program GraphPad Prism Software 9 (GraphPad).
(§3) The Bmax was calculated according to the following equation[51]: Bmax=B0×IC50/[L] in which B0 represents the total specific binding and [L] is the ligand concentration. The equilibrium dissociation constant (Kd) was obtained with the equation[51]: Kd=IC50−[L]

GIPR W90Lfs*17 [1] = experiment: cAMP accumulation; type: cell-based, human; conditions: normalized to WT efficacy at 100 pM; n = 5
Experimental: HEK293 (CRL-1573, American Type Culture Collection) and β-arrestin 1/2 knockout cells, generated from HEK293A[48], were used for cAMP measurement, homologues competition binding and β-arrestin 2 recruitment. For the internalization assay, endosomal signalling and basal receptor localization experiments, HEK293A (R70507, Thermo Fisher) cells were used. Both cell lines were cultured at 5% CO2 at 37 °C in Roswell Park Memorial Institute GlutaMAX-I supplemented with 10% fetal bovine serum, 180 units ml^−1 penicillin, and 45 g ml^−1 streptomycin. For the cAMP and binding experiments, cells were transfected with the calcium phosphate precipitation method[49]. The polyethyleneimine (PEI) transfection method was used for the β-arrestin 2 recruitment assays[50], endosomal signalling and basal receptor localization assays, while the lipofectamine transfection method was used for the internalization assay.
(§4) cAMP production was measured with the DiscoverX Hithunter cAMP assay according to the manufacturer’s protocol (DiscoverX). […] On the day of the assay, the cells were washed twice with HEPES-buffered saline (HBS) and incubated with HBS and 1 mM 3-isobutyl-1-methylxanthine for 30 min at 37 °C. […] After a 3-h incubation on a shaking table in the dark, the cAMP accumulation was measured based on luminescence with a Perkin Elmer EnVision 2104 Multilabel Microplate Reader. […]

GIPR C84Pfs*70 = experiment: Homologous competition binding; design: species or system human; key: NB: no binding; conditions: n = 3
Experimental: as §1, §2, §3

GIPR W90Lfs*17 [2] = experiment: Homologous competition binding; design: species or system human; conditions: normalized to WT GIPR; SEM 0.5, n = 3
Experimental: as §1, §2, §3

GIPR variants (groups) [3] = experiment: β-arrestin 2 recruitment (BRET); conditions: for In vitro groups (β-arrestin): arr part of the in vitro group; for Beta, Barr: in vitro β-arrestin recruitment per GIPR variant;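 as to all read-outs here: BRET readout of β-arrestin 2 recruitment in transiently transfected HEK293 cells expressing WT GIPR or a GIPR variant plus GPCR kinase 2, Rluc8 donor and citrine acceptor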
GIPR variants (groups) [4] = experiment: cAMP accumulation; type: cell-based, human; conditions: for In vitro groups (cAMP): cAMP part of the in vitro group; for percentage_camp: cAMP production compared with WT; for Beta, cAMP: in vitro cAMP production per GIPR variant
GIPR E461* = target: T1, GIPR E461*; experiment: cAMP accumulation; type: cell-based
Experimental: (§5) HEK293 (CRL-1573, American Type Culture Collection) and β-arrestin 1/2 knockout cells, generated from HEK293A[48], were used for cAMP measurement, homologues competition binding and β-arrestin 2 recruitment. […] Both cell lines were cultured at 5% CO2 at 37 °C in Roswell Park Memorial Institute GlutaMAX-I supplemented with 10% fetal bovine serum, 180 units ml^−1 penicillin, and 45 g ml^−1 streptomycin. For the cAMP and binding experiments, cells were transfected with the calcium phosphate precipitation method[49].
(§6) cAMP production was measured with the DiscoverX Hithunter cAMP assay according to the manufacturer’s protocol (DiscoverX). […] On the day of the assay, the cells were washed twice with HEPES-buffered saline (HBS) and incubated with HBS and 1 mM 3-isobutyl-1-methylxanthine for 30 min at 37 °C. […] After the incubation, the assay medium was removed from the plate and the cells were washed with 30 µl PBS and treated with 40 µl enzyme donor–lysis buffer–chemiluminescent reagents and 10 µl cAMP antibodies for 60 min before 40 µl enzyme acceptor solution added. After a 3-h incubation on a shaking table in the dark, the cAMP accumulation was measured based on luminescence with a Perkin Elmer EnVision 2104 Multilabel Microplate Reader.

GIPR G449A = target: T2, GIPR G449A; experiment: cAMP accumulation; type: cell-based
Experimental: as §5, §6

GIPR R38L = target: T3, GIPR R38L; experiment: cAMP accumulation; type: cell-based
Experimental: HEK293 (CRL-1573, American Type Culture Collection) and β-arrestin 1/2 knockout cells, generated from HEK293A[48], were used for cAMP measurement, homologues competition binding and β-arrestin 2 recruitment. […] Both cell lines were cultured at 5% CO2 at 37 °C in Roswell Park Memorial Institute GlutaMAX-I supplemented with 10% fetal bovine serum, 180 units ml^−1 penicillin, and 45 g ml^−1 streptomycin. For the cAMP and binding experiments, cells were transfected with the calcium phosphate precipitation method[49]. The polyethyleneimine (PEI) transfection method was used for the β-arrestin 2 recruitment assays[50], endosomal signalling and basal receptor localization assays, while the lipofectamine transfection method was used for the internalization assay.
as §4

GIPR E463Q = target: T4, GIPR E463Q; experiment: cAMP accumulation; type: cell-based
Experimental: as §5, §6

GIPR T25R = target: T5, GIPR T25R; experiment: cAMP accumulation; type: cell-based
Experimental: as §5
cAMP production was measured with the DiscoverX Hithunter cAMP assay according to the manufacturer’s protocol (DiscoverX). […] On the day of the assay, the cells were washed twice with HEPES-buffered saline (HBS) and incubated with HBS and 1 mM 3-isobutyl-1-methylxanthine for 30 min at 37 °C. […] After the incubation, the assay medium was removed from the plate and the cells were washed with 30 µl PBS and treated with 40 µl enzyme donor–lysis buffer–chemiluminescent reagents and 10 µl cAMP antibodies for 60 min before 40 µl enzyme acceptor solution added. After a 3-h incubation on a shaking table in the dark, the cAMP accumulation was measured based on luminescence with a Perkin Elmer EnVision 2104 Multilabel Microplate Reader. […]

GIPR R43G = target: T6, GIPR R43G; experiment: cAMP accumulation; type: cell-based
Experimental: as §5, §6

Molecule	In vitro groups (β-arrestin) (GIPR variants (groups) [3])	In vitro groups (cAMP) (GIPR variants (groups) [4])	percentage_camp (GIPR variants (groups) [4])	Beta, Barr (GIPR variants (groups) [3])	Beta, cAMP (GIPR variants (groups) [4])	also measured
GIP(1-42)	–	–	–	–	–	Kd (Binding) (GIPR Y258Sfs*50): NB; Binding (Bmax) (GIPR Y258Sfs*50; normalized to WT GIPR): NB; cAMP (Efficacy of 100 pM) (GIPR W90Lfs*17 [1]): 0.531; Kd (Binding) (GIPR C84Pfs*70): NB; Binding (Bmax) (GIPR C84Pfs*70; normalized to WT GIPR): NB; Binding (Bmax) (GIPR W90Lfs*17 [2]): 1.36
B1	WT-like_arr	GoF_camp	>50% cAMP	–	–	Efficacy at 100pmol (cAMP) (GIPR E461*): 1.495
B2	WT-like_arr	WT-like_camp	>50% cAMP	0.5256	0.609	Efficacy at 100pmol (cAMP) (GIPR G449A): 0.609
B3	WT-like_arr	WT-like_camp	>50% cAMP	0.8228	0.843	Efficacy at 100pmol (cAMP) (GIPR R38L): 0.843
B4	WT-like_arr	WT-like_camp	>50% cAMP	0.4933	0.9097	Efficacy at 100pmol (cAMP) (GIPR E463Q): 0.9097
B5	LoF_arr	WT-like_camp	>50% cAMP	0.193	0.6972	Efficacy at 100pmol (cAMP) (GIPR T25R): 0.6972
B6	LoF_arr	WT-like_camp	>50% cAMP	0.4783	1.1583	Efficacy at 100pmol (cAMP) (GIPR R43G): 1.1583
